# Data taken from FireProtDB (doi:10.1073/pnas.90.18.8367).
# B1: DNA-Binding protein, P69542 (parent)
# chain: MIKVEIKPSQAQFTTRSGVSRQGKPYSLNEQLCYVDLGNEYPVLVKITLDEGQPAYAPGLYTVHLSSFKVGQFGSLMIDRLRLVPAK
# Variants of: B1
# Details: Enterobacteria phage fd; pH 7; 25 °C; GdnHCl; CD; MOPS 50 mM; NaCl 100 mM; reversible: yes; structure 1VQB; whole UniProt chain shown
Variant,ddG of mutation (higher = less stable),unfolding free energy
L28V,-1.1 kcal/mol,
I47F,2 kcal/mol,
I47V,2.6 kcal/mol,
I47M,2.2 kcal/mol,
I47L,0.7 kcal/mol,
C33V,0.2 kcal/mol,
C33M,3.5 kcal/mol,
H64C,-0.5 kcal/mol,
V35M,1.1 kcal/mol,
V35C,1.4 kcal/mol,
V35I,0.7 kcal/mol,
V35L,2.7 kcal/mol,
V35A,2.2 kcal/mol,
I6V E30F,,0.71 kcal/mol
F13T,0.7 kcal/mol,
R82C,1.5 kcal/mol,
L32Y R82C,,0.15 kcal/mol
F73W,-0.8 kcal/mol,
V45C,0.1 kcal/mol,
L32Y,-1 kcal/mol,
I6V M77I,,0.34 kcal/mol
A86V,-0.5 kcal/mol,
A86T,0.7 kcal/mol,
F13T E30F,,1.59 kcal/mol
E30F A86T,,1.17 kcal/mol
E30F A86V,,2.05 kcal/mol
F68L,4.3 kcal/mol,
E30F,-2 kcal/mol,
